Patent US10221439B2, “Sensors, methods and kits for detecting nicotinamide adenine dinucleotides” (Max-Planck-Gesellschaft zur Förderung der Wissenschaften …, priority 2015, dated 2019)

Experiment: Titration of NAD-specific FRET sensor with NAD^+ and NADP^+
Format: binding
Experimental: In order to evaluate, that these mutations were sufficient to fully switch the specificity of the cofactor binding site of SPR from NADP(H) to NAD(H), we prepared titration experiments according to the similar procedure explained herein (example 3). The labelled sensor were diluted in buffer solution containing defined concentrations of NAD^+ and NADP^+ and measure with the fluorimeter (TECAN) (FIG. 4).

B1: SPR mutant with Asp^41 and Ala^42: initial trial SPR mutant sensor for NAD^+ (conjugate, UniProt P35270 1-261, looked up, variant A41D R42A)
Sepiapterin reductase: MEGGLGRAVCLLTGASRGFGRTLAPLLASLLSPGSVLVLSDANDEALRQLEAELGAERSGLRVVRVPADLGAEAGLQQLLGALRELPRPKGLQRLLLINNAGSLGDVSKGFVDLSDSTQVNNYWALNLTSMLCLTSSVLKAFPDSPGLNRTVVNISSLCALQPFKGWALYCAGKAARDMLFQVLALEEPNVRVLNYAPGPLDTDMQQLARETSVDPDMRKGLQELKAKGKLVDCKVSAQKLLSLLEKDEFKSGAHVDFYDK
affinity and specificity for NAD^+: low affinity, but high specificity for NAD^+
